Source: the nanobody polyreactivity screen of Harvey et al. (2022)

Assay: yeast display, Sf9 membrane polyspecificity reagent, FACS + sequencing; frameworks hold sequencing errors
Method in brief: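 In a synthetic yeast display library (Saccharomyces cerevisiae BJ5465), nanobody expression was induced with galactose for 36–48 hours. FACS gates were set low and high (top ~1%) using anti-HA fluorescence for expression and streptavidin fluorescence for binding of the Sf9 membrane reagent. Each polyreactivity label is drawn from the gate of origin.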

Row | Sequence | polyreactivity (PSR sort gate)
1 | QVQLLESGGGIVQAGGSLRLSCAASGSIFRYYAMGWYRQAPGKEREFVASITYRGGRTYYADSVKGRFTISRDNAKNTVYLQMNSLKPEDTAVYYCAARTRAGAWTSKYHDYWGQGTQVTVSS | high polyreactivity
2 | QVQLLESGGGIVQAGGSLRLSCAASGSIFWGYAMGWYRQAPGKERELVAAISSSGGNTYYADSVKGRFTISRDNAKNTVYLQMNSLQPEETAVYYCAATPEFYGGKITDVSSQYGYWGQGPQVTVSS | low polyreactivity
3 | QVQLLESGGGLDQAGGSLRLSCAASGRTFDRYAMGWYRQAPGKERELVAAISGRGGSTYYADSVKGRFTISRDNAKNTVYLQMNSLKPEDTAVYYCAARGSLWGAPTDYYYWGQGTQVTVSS | high polyreactivity
4 | QVQLLESGGGLDQAGGSLRLSCAAYGRIFGPNAMGWYRQAPGKERELVAAISWSGGTTRYADSVKGRFTISRDNAKNSVYLQMNSQKPEDTAVYYCAASADDRRSGKRYDSWGHGTQVTVSS | high polyreactivity
5 | QVQLLESGGGLDQAGGTLRLSCAASGGTINLYAMAWYRPAPGKERELVAAISWSGGTTYYADSVKGRFTLSRDNAKNTVYLQIISLKPVDTAVYYCAAYFRTSLGTYDYWGQGTKVTVSS | high polyreactivity
6 | QVQLLESGGGLGQAGGRLRLICAASGRTFTPYAMGWYRPAPGKERELVAAIDTSGGSTYADSVKGRFTISRDNAKNTVYLQMNCQKPEDTAVYYCATRGFYSWDYWYLWEYDYWGQGTQVTVSS | low polyreactivity
7 | QVQLLESGGGLGQAGGSLRLSCAASGSILSINGMGWYRQAPGKERELVATIDGSDGSTFYADSVKGRFTISRDNAKNTVYLQMNSQKPEDTAVYYCAAENFWQTKEYDYWGQGTQVTVSS | low polyreactivity
8 | QVQLLESGGGLLQAGGSLRLSCAASGSIFDFNAMGWYRQAPGKERELVAAITYIGDSTYYADSVKGRFTISRDNAKNTVYLQMNILKPEDTAVYYCANYRYPSRQYSFPLGYDYWGQGTQVTVSS | high polyreactivity
9 | QVQLLESGGGLVHAGGSLRLSCAASGRIFLGNAMGWYIQAPRKERELVASISRGGGTTYYADSVKGRITISRDNAKNTVYLQMNRLKPEDTAVYYCAARVYYVVQHGKYVYWGQGTQVTVSS | high polyreactivity
10 | QVQLLESGGGLVQAGGCLRLSCAASGSIFYPYALGGYRQAPGIVRELVAAISSREGRSYYADSVKGRFTISRDNGKKTVYLQMNSLKPEDTAVYYCAACSFNYGHRFYWGQGSQVTVSS | high polyreactivity
11 | QVQLLESGGGLVQAGGFLRLSCASSGSTFFIYAMGWYRPAPGKERELDAAISWSGGSTYYADSVKGRFTISPDKANNTVYLQMICLKPEYTAVYYCADESYYFDEYYWGQATQVTVSS | high polyreactivity
12 | QVQLLESGGGLVQAGGILRLSCAASGRIIVYYAMGWYRQAPGKERELVAAITRGGSTKYADSVKGRFTISRDNAKNTVYLQMNSLKPEDTAVYYCATATSRRSGYDYWGQGTQVSVSS | high polyreactivity
13 | QVQLLESGGGLVQAGGRLRLSCAASRNTFRQTAMGWNRQAPGKETELVASITSGGSTYYADSVQGRFTISRDNAKNTVYLQMNSLNPEDTAVYYCASRYIRSASWFYRIYDYWGQGTQVTVSS | high polyreactivity
14 | QVQLLESGGGLVQAGGSLRISCAASGSTFVRYPMGWYRQAPGKERELVAGISSGDRTYYADSVKGRFTISRDNAKNTVYLQMNSLKPEYTSVYYCNARPVYLLEGYYWGQGTQVTVSS | low polyreactivity
15 | QVQLLESGGGLVQAGGSLRISCAASGSTFVSNAMGWYRQAPGKERELVAAISRSAGRTYYADSVKGRFTISRDTAKNTVYLQMTSLKPEDTAVYYCAARVVHCFGFWGQGTQVTVSS | high polyreactivity
16 | QVQLLESGGGLVQAGGSLRLSCAASGFNFGGYVMGWYRQAPGKESELVAAISSSGGITHYADSLKGRFTISRDNAKNTVSLQMNRLKPEDTAVYYCNALYRQRYYWGQGTQVTVSS | high polyreactivity

Row | Sequence | polyreactivity (PSR sort gate)
17 | QVQLLESGGGLVQAGGSLRLSCAASGFNFYRYAMGWYRQAPGKERELVAAIRKSGGSTYYADSVKGRFTISRDNAKNTVYCQMNSLKPEDTAVSYCAKRYATDGFGYWGQGTQVSVSS | high polyreactivity
18 | QVQLLESGGGLVQAGGSLRLSCAASGFTFSRYAMGWYRQAPGKERELVAAITSSGGSTYYADSVKGRFTISRDNAKNTVYLQMLSLKPEDSAVYYCAAGKYTASNGYGYWGQGTQVTVSS | high polyreactivity
19 | QVQLLESGGGLVQAGGSLRLSCAASGGTFYSYAMGWYRQAPGKERELVATITRRSGSTYYADSVKGRFTISRDNAKNTVYLQMNSLKPEDTAVYYCAATKYKLLFIHFRYDYWGQGTQVTVSS | high polyreactivity
20 | QVQLLESGGGLVQAGGSLRLSCAASGITFSQYAMGWYRQAPGKERELVAAISWSGGSTYYANSVKGRFTISRDNAKNTVYLQMNSLKPEDTAVYYCAAVPVHTGSLYWGFTTGYDYWGQGTQVTVSS | low polyreactivity
21 | QVQLLESGGGLVQAGGSLRLSCAASGRIFDPYAMGWYRQAPGKERELVAAITGSGDGTYYADTVKGRYTISRYNAKNTVYLQMNRLKPEDTAVYYCAAVGRDRFVIHDYWGQGTQVTVSS | low polyreactivity
22 | QVQLLESGGGLVQAGGSLRLSCAASGRIFGYYTMGWYRQAPGKERELVAGITRRGGRTYYADSVKGRFTISRDNAKNTVYLEMNSLKPEDTAGYYCAVRSGVNFYYWGQGTQVTVSS | high polyreactivity
23 | QVQLLESGGGLVQAGGSLRLSCAASGRIFSENAMGWYRQAPGKERELVAAITGNGGDTYYADSVKGRFTISRDNAMNTVYLQMNSLKPEDTAVYYSAAETGGLGGEYWGQGTHVTVSS | low polyreactivity
24 | QVQLLESGGGLVQAGGSLRLSCAASGRIFVYNVMGWSRQAPGKERELVADINGSGGGTIFADSVKGRFTISRDNAKNNVYFQMNSLKPVDTAVYYCNADSYEYHVPYYDYRYDYWGHGTQVTVSS | low polyreactivity
25 | QVQLLESGGGLVQAGGSLRLSCAASGRIYLGYALGWYRQAPGKERELVAAITSSGGYTYYADSVKGRFTISLDNAKNTVYLQMNSLKPEDTAVYYCNVYRFGWWYTNDYWGQGTQVTVSS | high polyreactivity
26 | QVQLLESGGGLVQAGGSLRLSCAASGRMFGSNAMGWYRQAPGKERELVAAITRGGSTNYADSVKGRFTISRDNAKNTVYFQMNSLKPEDTAVYYCAVRWYRKYNYWGQGTQVTVSS | high polyreactivity
27 | QVQLLESGGGLVQAGGSLRLSCAASGSIFLFYDMGLYRHAPGKERELVATITSGTNTYADSVKGRFTISRDNAKNTGYLQMNSLKPEDTAVYSCAAGFSTASQLDYWGQVTQVTVSS | low polyreactivity
28 | QVQLLESGGGLVQAGGSLRLSCAASGSIFPAYSMGWYRQAPGKERELVASITGSGGSTYYADSVKGRFTISRDNAKNSVYLQMTSLKPEETAVYYCNARYYVYSATVDRYYHFYYWGQGTQVTVSS | high polyreactivity
29 | QVQLLESGGGLVQAGGSLRLSCAASGSIFYYYTMGWYRQAPGKETELVAAISRGGSTNYADSVKGRFTISRDNAKNTVYLQMNSLKPEDTAVYYCAADRLSGRYAYRFDYWGQGTQVTVSS | low polyreactivity
30 | QVQLLESGGGLVQAGGSLRLSCAASGSIIRQNGMVWYRPAPGKEREFVAAITRTGGSTYYADSVKGRFTISRDNAKNTVYLHMNSLKPEDTAGYYCAARGGYRYTRYDYWGQGTQVTVSS | high polyreactivity
31 | QVQLLESGGGLVQAGGSLRLSCAASGSPFYYYARGWYRQAPGKERELVARITYGGSRTYYADSVKGRFTISRDNAKYTVYLQMNSLKPEDTAVYYCNAGRVLYGYYLYDYWGQGTQLTVSS | high polyreactivity
